According to the Human Domainome abundance scans (Beltran et al. 2025):
± gives the uncertainty stated by the source.

B1: POU domain, class 4, transcription factor 2, residues 256 to 327; numbered along this chain, Q12837 (parent)
chain: RDLEAFAERFKQRRIKLGVTQADVGSALANLKIPGVGSLSQSTICRFESLTLSHNNMIALKPILQAWLEEAE

Variants of: B1
Experiment: abundance fitness (aPCA) (normalised: wild type 0, dead -1); higher = more abundant; growth selection in yeast, the domain comes from the species named
Conditions: Homo sapiens

Abundance fitness, by site and new letter:
S49: C -0.245 ± 0.14 | D -0.106 ± 0.17 | E 0.134 ± 0.14 | F -0.651 ± 0.24 | G 0.055 ± 0.093 | H -0.587 ± 0.3 | I -1.03 ± 0.46 | K 0.069 ± 0.3 | L -0.297 ± 0.056 | M -0.492 ± 0.36 | N -0.065 ± 0.19 | P -0.537 ± 0.099 | R 0.032 ± 0.07 | T -0.035 ± 0.12 | W -0.485 ± 0.22
L50: A 0.005 ± 0.061 | C -0.029 ± 0.069 | D -0.196 ± 0.13 | E -0.322 ± 0.24 | F -0.088 ± 0.11 | G 0.06 ± 0.046 | H -0.057 ± 0.081 | I -0.361 ± 0.18 | K -0.128 ± 0.25 | M -0.003 ± 0.15 | N 0.161 ± 0.076 | P -0.867 ± 0.12 | R -0.077 ± 0.055 | S 0.012 ± 0.066 | T -0.147 ± 0.094 | W -0.791 ± 0.19 | Y -0.478 ± 0.37
T51: A -0.035 ± 0.033 | C -0.077 ± 0.11 | D -0.295 ± 0.39 | E -0.059 ± 0.17 | F -0.414 ± 0.11 | G -0.181 ± 0.058 | H -0.232 ± 0.36 | K 0.264 ± 0.16 | L -0.256 ± 0.064 | M 0.077 ± 0.096 | P -1.08 ± 0.32 | Q -0.041 ± 0.086 | R -0.111 ± 0.067 | S 0.018 ± 0.028 | V -0.367 ± 0.079 | W -0.78 ± 0.37 | Y -0.567 ± 0.21
L52: A -0.822 ± 0.14 | D -0.472 ± 0.18 | E -0.732 ± 0.22 | F -0.682 ± 0.21 | G -0.679 ± 0.12 | H -0.729 ± 0.28 | K -0.163 ± 0.17 | M -0.324 ± 0.19 | N -0.997 ± 0.18 | P -0.887 ± 0.12 | Q -1.08 ± 0.32 | R -0.883 ± 0.12 | S -0.849 ± 0.13 | T -0.683 ± 0.15 | W -0.952 ± 0.22
S53: A -0.163 ± 0.046 | C -0.514 ± 0.18 | D 0.043 ± 0.1 | E -0.066 ± 0.12 | F -0.882 ± 0.2 | G -0.102 ± 0.059 | H -0.376 ± 0.15 | K -0.738 ± 0.35 | L -0.729 ± 0.1 | M -0.371 ± 0.23 | N -0.605 ± 0.29 | V -0.492 ± 0.11 | Y -0.556 ± 0.18
H54: A -0.005 ± 0.065 | D -0.183 ± 0.21 | E -0.3 ± 0.34 | F -0.086 ± 0.11 | G -0.314 ± 0.064 | I -0.047 ± 0.18 | L -0.042 ± 0.049 | M 0.005 ± 0.18 | N -0.138 ± 0.1 | P -0.079 ± 0.051 | Q 0.034 ± 0.06 | R 0.081 ± 0.047 | S -0.145 ± 0.068 | T 0.06 ± 0.087 | W -0.119 ± 0.088
N55: A 0.137 ± 0.086 | D -0.009 ± 0.12 | E -0.184 ± 0.39 | F -0.396 ± 0.13 | G -0.009 ± 0.098 | H -0.326 ± 0.14 | I -0.197 ± 0.13 | K -0.016 ± 0.15 | L -0.121 ± 0.055 | M -0.253 ± 0.15 | Q 0.073 ± 0.088 | R -0.055 ± 0.043 | S 0.013 ± 0.051 | T -0.024 ± 0.074 | V -0.013 ± 0.1 | W -0.403 ± 0.083
N56: A -0.041 ± 0.094 | C 0.146 ± 0.12 | D 0.281 ± 0.31 | F -0.149 ± 0.24 | G -0.024 ± 0.13 | H 0.128 ± 0.16 | K 0.048 ± 0.17 | L 0.07 ± 0.077 | M -0.304 ± 0.31 | P -0.52 ± 0.082 | Q 0.275 ± 0.39 | R -0.134 ± 0.084 | S 0.077 ± 0.078 | T -0.023 ± 0.25 | V 0.083 ± 0.2 | W -0.057 ± 0.13 | Y -0.248 ± 0.45
M57: A -0.306 ± 0.13 | C -0.251 ± 0.11 | E -0.565 ± 0.086 | F -0.428 ± 0.26 | G -0.41 ± 0.075 | H -0.547 ± 0.16 | K -0.892 ± 0.34 | L -0.157 ± 0.062 | P -0.924 ± 0.11 | Q -0.859 ± 0.21 | R -0.904 ± 0.088 | S -0.602 ± 0.081 | T -0.701 ± 0.13 | V -0.54 ± 0.11 | W -0.374 ± 0.075
I58: A -0.139 ± 0.079 | C -0.374 ± 0.21 | D -0.615 ± 0.27 | E -0.258 ± 0.12 | F -0.287 ± 0.11 | G -0.287 ± 0.076 | H -0.237 ± 0.23 | K 0.063 ± 0.076 | L 0.02 ± 0.056 | M -0.118 ± 0.12 | N -0.077 ± 0.28 | P -0.854 ± 0.17 | R 0.07 ± 0.045 | S -0.017 ± 0.057 | T -0.235 ± 0.14 | V -0.028 ± 0.081 | W -0.152 ± 0.061 | Y -0.461 ± 0.16
A59: C -0.431 ± 0.12 | E -0.193 ± 0.17 | G -0.169 ± 0.097 | H -0.249 ± 0.11 | I 0.027 ± 0.14 | K -0.057 ± 0.14 | L -0.091 ± 0.049 | M -0.003 ± 0.075 | Q 0.062 ± 0.082
